From patent US20130071428A1

Assays:
[1] = biological target: b1, neg contr. (Clostridium tetani); experiment: Tettox ELISA, negative control peptide; antibody source not named in Table 4
[2] = biological target: J Z SKFIGITELKKLESKINKVF (Clostridium tetani)
[3] = biological target: J Z Z F I G I T E L K K L E S K I N K V F (Clostridium tetani)
[4] = biological target: J Z F I G I T E L K K L E S K I N K V F (Clostridium tetani)
[5] = biological target: J Z Z SKFIGITELKKLESKINKVF (Clostridium tetani)
[6] = biological target: … (18-mer) with Ahx-Lys(biotin) (Clostridium tetani); experiment: Tettox ELISA, biotinylated peptide on streptavidin plate
[7] = biological target: … (18-mer) with Ahx-Lys(biotin) (Clostridium tetani)

TetaQuin® (antibody)
OD (column without a head) [1]: 0.12 OD
OD (column without a head) [2]: 0.28 OD
OD (column without a head) [3]: 0.22 OD
OD (column without a head) [4]: 0.17 OD
OD (column without a head) [5]: 0.47 OD
OD [6]: 2.3 OD
ELISA OD (Ala scan of …, # 9): 0.62 OD
ELISA OD [7]: 1.26 OD
ELISA OD (Ala scan of …, # 15): 0.88 OD
ELISA OD (Ala scan of …, # 6): 0.38 OD
ELISA OD (Ala scan of …, # 11): 0.7 OD
ELISA OD (Ala scan of …, # 8): 0.9 OD
ELISA OD (Ala scan of …, # 12): 0.85 OD
ELISA OD (Ala scan of …, # 10): 1.06 OD
ELISA OD (Ala scan of …, # 3): 1.04 OD
ELISA OD (Ala scan of …, # 4): 0.65 OD
ELISA OD (Ala scan of …, # 16): 1.37 OD
ELISA OD (Ala scan of …, # 18): 1.24 OD
ELISA OD (Ala scan of …, # 17): 1.3 OD
ELISA OD (Ala scan of …, # 2): 1.12 OD
ELISA OD (Ala scan of …, # 5): 0.3 OD
ELISA OD (Ala scan of …, # 7): 1.24 OD
ELISA OD (Ala scan of …, # 14): 1.1 OD
ELISA OD (Ala scan of …, # 13): 1.27 OD
ELISA OD (Ala scan of …, # 19): 1.26 OD
